Experimental data reported in publication PMC4269474 (Cell reports, 2014).

Target: the molecule itself
Assay: negative-stain EM single particle reconstruction

B1: Pyrococcus furiosus Cmr4 (natural protein)
chain: KAYLVGLYTLTPTHPGSGTELGVVDQPIQRERHTGFPVIWGQSLKGVLRSYLKLVEKVDEEKINKIFGPPTEKAHEQAGLISVGDAKILFFPVRSLKGVYAYVTSPLVLNRFKRDLELAGVKNFQTEIPELTDTAIASEEITVDNKVILEEFAILIQKDDKGILESVVKAIEQAFGNEMAEKIKGRIAIIPDDVFRDLVELSTEIVARIRINAETGTVETGGLWYEEYIPSDTLFYSLILVTPRAKDNDMALIKEVLGKINGKYLQIGGNETVGKGFVKVTLKEVTNNGGTHAK
- stoichiometry N: 4
